# Assay results from patent publication US20170298375, “CONTROL OF CELLULOSE BIOSYNTHESIS BY OVEREXPRESSION OF A TRANSCRIPTION FACTOR” (Board of Trustees of Michigan State University, published 2017).
# B1: ProCesA8wt (dsDNA)
# DNA 1: CTTATAGAAAGTTGGTGATTGAAAA
# DNA 2: TTTTCAATCACCAACTTTCTATAAG
# B2: ProCesA4wt (dsDNA)
# DNA 1: TCACTCACAGTTTGGTACAACCTCA
# DNA 2: TGAGGTTGTACCAAACTGTGAGTGA
# B3: ProCesA7wt (dsDNA)
# DNA 1: CAGAAAATTCACCTAATTAAGGACA
# DNA 2: TGTCCTTAATTAGGTGAATTTTCTG
# Experiments:
# [1] = target: T1, GST-MYB46 (Arabidopsis thaliana, UniProt Q9LXV2 SEQ:1-280); assay: EMSA; labelled fragment stated as -525 to -358 in text; details: tags: GST fusion, E. coli Rosetta gami; label: 32P
# T1 sequence (Q9LXV2 whole entry, the tested form may be a part): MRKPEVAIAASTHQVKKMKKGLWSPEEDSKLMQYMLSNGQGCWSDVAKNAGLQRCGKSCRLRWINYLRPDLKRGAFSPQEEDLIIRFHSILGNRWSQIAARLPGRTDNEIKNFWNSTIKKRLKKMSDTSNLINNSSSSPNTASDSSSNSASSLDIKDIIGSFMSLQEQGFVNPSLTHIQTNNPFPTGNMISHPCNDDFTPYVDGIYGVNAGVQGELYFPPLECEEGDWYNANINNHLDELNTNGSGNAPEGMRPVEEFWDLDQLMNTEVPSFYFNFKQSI
# Procedure: (§1) A GST-MYB46 fusion protein was first incubated with the wild type, double-stranded ³²P-labeled oligodeoxynucleotides with the wild type CESA4, CESA7 and CESA8 promoter sequences shown in FIG. 3A. The GST protein was used as control protein. Unlabeled competitor promoter oligonucleotides were then added the assays to generate the assay mixtures identified FIG. 3B, where the competitors were oligonucleotides with wild type and mutated CESA4, CESA7 and CESA8 promoter sequences shown in FIG. 3A. […] To generate the results shown FIG. 3B, each assay mixture was then subjected to an electrophoretic mobility shift assay (EMSA) by polyacrylamide gel electrophoresis (PAGE). […] The promoter regions used for the DNA probes in each experiment are indicated below the gel images. Competition for the protein-DNA binding was performed using 60× unlabeled probes. The free unbound DNA probes are indicated by the arrow.
# (§2) DNA fragments for EMSA were obtained by PCR-amplification and labeled with [γ-³²P]ATP using T4 polynucleotide kinase (NEB). The end-labeled probes were purified with Microspin S-200 HR column (GE Healthcare). The labeled DNA fragments were incubated for 25 min with 50 ng of GST-MYB46 in a binding buffer [10 mM. Tris (pH 7.5), 50 mM KCl, 1 mM DTT, 2.5% glycerol, 5 mM MgCl₂, 100 μg/ml BSA, and 50 ng/μL poly(dI-dC)].
# [2] = target: GST (UniProt P08515 P08515:1-218); assay: EMSA; GST alone control; details: tags: GST alone control; label: 32P
# Chain of GST (P08515 whole entry, one chain of several): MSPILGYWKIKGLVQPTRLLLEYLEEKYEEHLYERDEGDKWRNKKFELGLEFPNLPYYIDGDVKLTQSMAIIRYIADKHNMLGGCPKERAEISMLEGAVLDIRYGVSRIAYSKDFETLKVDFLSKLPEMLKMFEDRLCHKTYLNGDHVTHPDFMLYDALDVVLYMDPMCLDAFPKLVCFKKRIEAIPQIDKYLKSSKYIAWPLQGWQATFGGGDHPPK
# Procedure: as §1, §2
# [3] = target: T1, GST-MYB46; assay: EMSA; labelled fragment stated as -248 to -69 in text; 5 mM MgCl2, 50 mM KCl, pH 7.5; details: tags: GST fusion, E. coli Rosetta gami; label: 32P
# Procedure: as §1, §2
# [4] = target: T1, GST-MYB46; assay: EMSA; labelled fragment stated as -662 to -486 in text; details: tags: GST fusion, E. coli Rosetta gami; label: 32P
# Procedure: as §1, §2
Binder,binding result [1],binding result [2],binding result [3],binding result [4]
B1,binds,no binding,,
B2,,no binding,binds,
B3,,no binding,,binds
